Data from the supplement of paper PMC9170038.

Tested on: MS2 coat protein
Assay: apparent KD of MS2 coat protein; designed switch direction (-1 OFF switch, 1 ON switch): -1; higher = weaker reporter binding
Method in brief: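 Stalled E. coli RNA polymerase transcribed designed RNA switches on Illumina chips, which were then titrated with SNAP-549-labelled MS2 coat protein, doubling from 0.7 or 1.5 nM to 3 µM. Steps lasted from 0.8–1.5 h at the lowest concentration to 10–20 min at the highest. The apparent KD is each design's median over clusters of curve-fitted normalised fluorescence.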

[1] = Eterna round: R95, input ligand: microRNA oligo, concentration not stated
[2] = input ligand: microRNA oligo, concentration not stated
[3] = Eterna round: R95, input ligand: FMN 200 uM
[4] = Eterna round: R95, input ligand: none

| Sequence | apparent KD of MS2 coat protein [1] [nM] | apparent KD of MS2 coat protein [2] [nM] | apparent KD of MS2 coat protein (input ligand: FMN 200 uM) [nM] | apparent KD of MS2 coat protein (input ligand: none) [nM] | apparent KD of MS2 coat protein [3] [nM] | apparent KD of MS2 coat protein [4] [nM] |
| --- | --- | --- | --- | --- | --- | --- |
| UUUUUACAUGAGGAUCACCCAUGUCAGGAUAUCGUUAUAUUUUAUUAUUUUAUUUUUUCGAGAAGGGACUAUUA [My solution] (puzzle: Exclusion 1) | 74.6 |  |  |  |  |  |
| UUUUUACAUGAGGAUCACCCAUGUCAGGAUAUGGUUAUAUUUUAUUAUUUUAUUUUUUCCAGAAGGGACUAUUA [My solution] (puzzle: Exclusion 1) | 273 |  |  |  |  |  |
| UUUUUAUAACAAGGAUAUACUAAACAUGAGGAUCACCCAUGUAAUAUUAUGAGUGAGAGAGAUAAGUAGAAGGUGUAUUAUUUU [JMF solution 3] (Eterna round: R96, puzzle: Exclusion NG 2) |  | 99.6 |  |  |  |  |
| UUUUUAUAAGGAUAUAUGUGGAUAAUUUUUAUAUGAAAAUUACAUGAGGAUCACCCAUGUAGAAGGUAUGGAGG [-13.9, -11.8 kcal, 35% A] (Eterna round: R97, puzzle: Exclusion 2) |  |  | 24 | 39.2 |  |  |
| UUUUUAUAUGAAGGAUAUACUUAACAUGAGGAUCACCCAUGUGGUGUUGUGAGUGAGAGAGUUUAGUAGAAGGUCAAUUAUUUU [JMF's solution 5] (Eterna round: R96, puzzle: Exclusion NG 2) |  | 280 | 714 | 300 |  |  |
| UUUUUAUAUGAAGGAUAUACUUAACAUGAGGAUCACCCAUGUGGUGUUGUGAGUGAGUGAGUUUAGUAGAAGGUCAAAGAUUUU [JMF's solution 57] (Eterna round: R96, puzzle: Exclusion NG 2) |  | 304 | 1550 | 295 |  |  |
| UUUUUAUAUGAAGGAUAUACUUAACAUGAGGAUCACCCAUGUGGUGUUGUGAGUGAGUGAGUUUAGUAGAAGGUCAAGUAUUGU [JMF's solution 39] (Eterna round: R96, puzzle: Exclusion NG 2) |  | 347 | 891 | 441 |  |  |
| UUUUUAUAUGAAGGAUAUACUUAACAUGAGGAUCACCCAUGUGGUGUUGUGAGUGAGUGAGUUUAGUAGAAGGUCAAUGAUUGU [JMF's solution 60] (Eterna round: R96, puzzle: Exclusion NG 2) |  | 216 | 918 | 369 |  |  |
| UUUUUAUAUGAAGGAUAUACUUAACAUGAGGAUCACCCAUGUGGUGUUGUGAGUGAGUGAGUUUAGUAGAAGGUCAAUUCUUUU [JMF's solution 11] (Eterna round: R96, puzzle: Exclusion NG 2) |  | 395 | 957 | 510 |  |  |
| UUUUUCAGGCCAGAUCCUCACAUGAGGAUCACCCAUGUGCUCGUCUGUUUUCGCACUAUCACGUUUGUGAUAGUGCU [Level Boss var2-12] (puzzle: Sensor v3, turn-off variant 1) | 33.5 |  |  |  | 207 | 216 |
| UUUUUCAGGCCAGAUCCUCACAUGAGGAUCACCCAUGUGCUCGUCUGUUUUCGCACUAUCUUUUUUUUGAUAGUGCU [Level Boss var2-13] (puzzle: Sensor v3, turn-off variant 1) | 26.8 |  |  |  | 291 | 309 |
| UUUUUCAGGCCAGAUCCUCACAUGAGGAUCACCCAUGUGCUCGUCUGUUUUCGCACUAUCUUUUUUUUGUUAGUGCU [Level Boss var2-14] (puzzle: Sensor v3, turn-off variant 1) | 22.7 |  |  |  | 287 | 322 |
| UUUUUCUUUGUAGGAUAUCGUUUUUUUUUUUUUCGAGAAGGACAUGAGGAUCACCCAUGUUUCAAAAUUUUUUUUUUUUUUUUU [First try] (Eterna round: R96, puzzle: Exclusion NG 1) |  | 13.3 | 25.1 | 17.8 |  |  |
| UUUUUGUCAGGAUAUGACUAGAUGCACGUUAGUGUGUUUACUUAGAAGGGACAUGAGGAUCACCCAUGUAUUCC [Bring Us a Shrubbery-14] (puzzle: Exclusion 4) | 26.4 |  |  |  |  |  |
| UUUUUGUCAGGAUAUGAGUCGUAGAACAAUAGUACUACGUCUCAGAAGGGACAUGAGGAUCACCCAUGUGCCUC [Fiskers Ex 4 Super Stable 44 mod 28] (puzzle: Exclusion 4) | 26.2 |  |  |  |  |  |
| UUUUUGUCAGGAUAUGCGUAGUAGAACAAUAGUACUACUACGUAGAAGGGACAUGAGGAUCACCCAUGUUCCUC [Fiskers Ex 4 Super stable 44 mod 17] (puzzle: Exclusion 4) | 13.9 |  |  |  |  |  |
| UUUUUGUGAGGAUAUGCGUAGUAGAACAAUAGUACUACUACGUAGAAGGCACAUGAGGAUCACCCAUGUUCCUC [Fiskers Ex 4 Super stable 44 mod 15] (Eterna round: R96, puzzle: Exclusion 4) |  | 34.7 | 339 | 43.1 |  |  |
| UUUUUGUGAGGAUAUGCGUAGUAGAACAAUAGUACUACUACGUAGAAGGCACAUGAGGAUCACCCAUGUUCCUC [Fiskers Ex 4 Super stable 44 mod 15] (puzzle: Exclusion 4) | 36.4 |  |  |  |  |  |
| UUUUUUGGGCAAGGAUAUCCUGUGCGGUUCCGGCUCGUGUCUGUUACAUGAGGAUCACCCAUGUGGGAGAAGGUGCCUGUGGUU [Design 86] (Eterna round: R96, puzzle: Exclusion NG 2) |  | 37.3 | 183 | 43 |  |  |
| UUUUUUGUUGUGAGGAUAUCGUAUUCUUUUUGUUACGAGAAGGCACAUGAGGAUCACCCAUGUUUCUUGAUGUU [JR_BMOE4_Sub067] (puzzle: Brourd's mod of Exclusion 4) | 15.3 |  |  |  |  |  |
| UUUUUUUGGCAAGGAUAUCCUGUGCGGUUCCGGCUCGUGUCUGUUACAUGAGGAUCACCCAUGUGGGAGAAGGUGCCUGUGGUU [Design 87] (Eterna round: R96, puzzle: Exclusion NG 2) |  | 36.8 | 82.8 | 32.8 |  |  |
| UUUUUUUUGCGAGGAUAUGCAUUUAGUUAGUUAGCAGAAGGCGCGUUUCUAUACUCCUCUUCGUACAUGAGGAUCACCCAUGUU [JR_ExcNG1_Sub032] (Eterna round: R96, puzzle: Exclusion NG 1) |  | 35.7 | 74.9 | 44.8 |  |  |
